The values that follow come from the DeepSol protein solubility set.

This data set is described as follows: soluble on expression in E. coli; label from the status in PepcDB or PDB records.
As to “MKIKRLSLWHVPLTSHTAYYMAEGKTCDTVETAVLCIETDTGLTGWGEVCPIPHYLPAYARGVGPALSELAPVILSADPIGPEALMAKADAYLPDHRYAKSALDIALWDLTGQAAGLPLHALLGGQRQADLPLYHSITCIEPDEMARIAIEAQAQGMTQFQAKLGASGDWQTDVERLIKVREAVGSGPILYGDWNCGSTSLDATRTGRAVAHLDIMLEQPCATIEDCARVHSATGLPMKLDELVHDTASLLKAHQLGLMDVAALKLSKFGGLSATRRARDLCLHLGAKMCVEDTWGSDITTAAVLHLGAATDPARVLNVCDLSGYVSPRLAQDAPTRAQGRIAPPQAAGLGIAVDKTALGQPELILD”, the “soluble on expression in E. coli” value was “soluble”.

Consider “MSLINRFSVPLLETSTIDLANVASNKIEPETVLTNARILSTYSDRILKDKELWIFKGRIACIKPSGSYKEFFQMDKSKIYEVNNNILAPGLIDPHMHIESSMMTGCAYAEAALLNGTTTIFCDSHEIGNVCDTDGIEWMLQDCRESPISIFLTLPSTIPATNKYLETAGGDLTDKKTAILFDKWPEIKGLGEKMDFVSVCEGNERSHSIISETLKRNLPVSGHVFGREFVAAYAASGITDTHEAEDKLFTNDLLDAGLWIFLRGGNPKTPWNSIKEAIKVITESEASTKRICVCTDDRDADDLFNFGLDWVVRQANTLGINNTTAWSMGSLHPATRFNIDRDYGALGHSRRADIVMINDNLEVLNTWLGGHLAVENKKITSLIDKQLSENRYQYPKRAYNTVILPKKINFIPDMPKESEFKINVIKTELPGIMTFKETIHIKEGHHHHHH”, for which the “soluble on expression in E. coli” value is reported as “soluble”.

As for “MERKHHFVLVHNAYHGAWIWYKLKPLLESAGHRVTAVELAASGIDPRPIQAVETVDEYSKPLIETLKSLPENEEVILVGFSFGGINIALAADIFPAKIKVLVFLNAFLPDTTHVPSHVLDKYMEMPGGLGDCEFSSHETRNGTMSLLKMGPKFMKARLYQNCPIEDYELAKMLHRQGSFFTEDLSKKEKFSEEGYGSVQRVYVMSSEDKAIPCDFIRWMIDNFNVSKVYEIDGGDHMVMLSKPQKLFDSLSAIATDYM”, the “soluble on expression in E. coli” value is reported as “soluble”.

For “MASDENIGADGEQKPSRPFLRKGQGTARFRMPRNNKTSAGAPPTSELSSASSPSINVPRFSLSNALPNSARTVDSGISNEDETRPPTTASLPMDQPSLSSSPENRLNPAPSVAEEHGHSGQHAEEEEDNDTDEVSAMPSFVPDEPSTLVNSDHELSDDALKYKNAAAEFKAFERRMDSMRSASTITTSLATPSSCAPSNSSEPPTRSTPIMNDLGVGPNNHNWPSSMQELSGISLETPQARPLGSNRINQLVRSEAQTGISLLQHHERPTVTAPLRRNDMMNSSRQNPQNGNVQDENRPEHVYDQPIHVPGSSLDRQKLEIEIRRHRNLNIQLRDTIAHLDYAEESVHTTKRQLEEKISEVNNFKKELIEEFKKCKKGVEEEFEKKFEKIKEDYDELYEKLKRDQRDLERDQKILKKGTGERNKEFTETIATLRDKLRASETKNAQYRQDIRVRDEKLKKKDEEIEKLQKDGNRLKSTLQTLEKRVKQLRTEKERDDKEKEMFAKVAMNRKTSNPVPPVLNQSVPISITSNGPSRHPSSSSLTTFRKPSTSNRERGVSWADEPNEQSLEAVPQEFLMMPVKEMPGKFGKCTIYRDSLGETSKVTDTIANGLLFEYSNGDLRWVNRQNAVNIYISAVDKTVRIDLPTYNISIIHTFQRQVEVLRPGNNITLISIKRREVRTDLIYQNGMYKTEIFNRDGRYVTKDFSNQEVSRKYNPGTHTYRDNQCRYVLVTDYNDFELVEPEFRLRWYQGDPTGLNNQYILKIIGRPECSEKTLRLEVNLSTCEGTLETAEMIGDKRRKTTLFQWKK”, the “soluble on expression in E. coli” value is “not soluble”.

On to “MPGNSGNDRSVVVGRVSGAFGVRGWVKAVSFTDPPVNLVGYRPWTLRRGDAERRADVLEGREHGNAVIVRLQGVDTREQAEALKGFEVTVRRSQLPPPAPGEYYRVDLVGLKVVNLGETVLGEVVDVMETGANDVLVVQGDRERLLPFVQGVFVKSVNLEESRIVVDWDPGFLEHHHHHH”, for which the “soluble on expression in E. coli” value is recorded as “not soluble”.

In the case of “MNRSTISPVEARQQFRAGLIQPTSGWSAGFAQANLISMPQDLAYDFLLFAQRNPKPCPILEVLNAGETFGGIFGSNATEADIRTDAPQYRIYAHGELIDSPASAVDYWRDDLVSFIIGCSFTFEHPMVQAGVPVRHLEAGRNVPMYETSLACRPAGSLSGNLVVSLRMIPASQVADAVRITSRYPAVHGAPVHIGDPSLIGIDDINNPDFGDAPLSEPSDVPVFWACGVTPQAMVMSSKPPLAITHAPGHMLITDAPDLGFQVPLEHHHHHH”, the “soluble on expression in E. coli” value was “not soluble”.

With “MGSDKIHHHHHHMTYAVGDIHGCFYALKSLLEKLPLSEEDELIFMGDYVDRGPNSREVIEFLIELSKHHRCIFLRGNHEEMLLNCVKNGSDCDLWFFNGARSTVESFGGVEEIKKFLPFFENTVYHYEKENYVFVHGGVRPGVSLEDQDPFDLVWIRDEFIYSENPLPGKIVVFGHTPFEEPFVSRDKIGIDTGCVYGGRLTALRVEDRKFFQVECANRRW”, the “soluble on expression in E. coli” value was “not soluble”.

As to “MSLSTLKREQIKKDLKDQEFDVVIIGGGITGAGIALDASERGMKVALVEMQDFAQGTSSRSTKLVHGGLRYLKQLQVGVVAETGRERAIVYENGPHVTTPERMLLPMHKGGSMGKFTTSIGLAMYDRLAGVKKAERKTMLNAKETLEKEPLVKKAGLKGGGSYVEYRTDDARLTIEVMKRAEEKGAKVINHTKSVHFTYDSNEKVNGIQVEDQISNETYPIKAKKVINASGPWVDEVRSGDYARNNKQLRLTKGVHIVIDQSKFPLGQAVYFDTEKDGRMIFAIPREGKAYVGTTDTFYDNNKTSPLANQEDRDYLIDAINYMFPDVNVADEDIESSWAGVRPLILEEGKDPSEISRKDEVWEGKSGLLTIAGGKLTGYRHMALEIVDLLSKRLKSEFGLKFDKCATKHLTISGGDVGGSANFDKFIEQKVEEAKSYQIDESTARHFASKYGSNAEELFKIAQTAQYQETGLPLDIYTELVYSIQNEMVYRPTDFFIRRTGKLYFKIDDVLNYKEQVIDVMAGLLGYTNIEKEAYTKELQIAIDEAQTGNHQPAVKELEHHHHHH”, the “soluble on expression in E. coli” value is “not soluble”.

For the sequence “MGSDKIHHHHHHMEKQEIIEKLVELKDRLIEDVYQAYSRNTSDYGHERYNAWKKSVTKFLNQYIPNEVQRFNEKANPTYGVFLRRNGMSYHDFFWKTDGSAMNAYLESLILDIQNDDYDFTPINKEVQDVKTIPEAKSKKVLIVHGHDEAAKYRTEAFLRKHGFDPIILHLNASKGDTIIKKLERLAEGVGYGIVLYTPDDMGETKVKAVQHELQPRARQNVVFEHGYLMGLIGRPNVAAIVEGYVEKPSDIDGVVYIPSSNWEIDLLRELHEAGYPINPANL”, the “soluble on expression in E. coli” value is “not soluble”.

Turning to “MGSDKIHHHHHHMPYINVRGVEHYYEWVKQPSGDLVKPVMVFIHGWAGSARYWISTANALSDQFDCLLYDLRGFGRSQGKPTVAQASESVVGADSTQEKSQAIQELTYEIEEYAEDLVVLLDELKLQRVYVNAHSMGASVATMFFNRYPQRVERGILTCSGIFEYDEKAFAAFHKFGGYVVKFRPKWLGKIPLVDRMFMARFLHRPIPKSERKAFLEDFLVADYDTALGTIFTSVSKAQAEVMPQEFAKLQVPTLLVAGEYDQIIPAKMGRQAASLNDKVEFVLIPNTAHFPMLEDAPTYLRRVREFLQVATPELQTS”, the “soluble on expression in E. coli” value is recorded as “not soluble”.

For the sequence “MKVSKFGGSSVSNATQIKKVLNIVNSDPERKIVIVSAPGKRHDNDIKTTDLLIRLYEKVINHLDYHDKKREIIQRYDDIVKELQMDESILRTIDVTLEHYINQLKNEPKRLLDALLSCGEDFNAQLIALYNNSQGIPTKYISPKEAGIFVTDVPQEAQILDSAYSEIKKLRDYDEKLIIPGFFGVSHEGYIVTFPRGGSDITGAIISSGVRATIYENFTDVSGIYKANPNIIKDPELIEEITYREMRELSYAGFSVFHDEALQPLYKDRIPVVIKNTNRPQDKGTFIVHDREINAKNVISGISCDKDFTVINIKKYLMNRQVGFTRKILGVLEDNNISFDHMPSGIDTISIVMRSKQIQNKETKVLNEIRQKCDVDELSIEHDLAILMIVGEGMNKVIGTANKITHALAESKINLKMINQGASEISMMFGIHVDDAEKAVLSTYEFCYHGVALKNLCDKNMAGDPLEHHHHHH”, the “soluble on expression in E. coli” value is “not soluble”.

As for “MDLAKLGLKEVMPTKINLEGLVGDHAFSMEGVGEGNILEGTQEVKISVTKGAPLPFAFDIVSVAFGYGNRAYTGYPEEISDYFLQSFPEGFTYERNIRYQDGGTAIVKSDISLEDGKFIVNVDFKAKDLRRMGPVMQQDIVGMQPSYESMYTNVTSVIGECIIAFKLQTGKHFTYHMRTVYKSKKPVETMPLYHFIQHRLVKTNVDTASGYVVQHETAIAAHSTIKKIEGSLPVDHHHHHH”, the “soluble on expression in E. coli” value is “soluble”.

As for “MEHIYKLLRSFKWDCAKYLYKNTLNFKVKRLRRKKNIRVLFAVAESATWKSDCLYKAMAEHPRFTPSILVLPDEQKEKTLLKEEVDSCFNLFCRKGYACTYPYQNGKLINIRKKLKPDIIFYQKPYTFYPKSLLYYKNMNALFCYTNYAFHSLLTDWANDNEFFRLMWQNYYENESANVDLKKKFAGIFSNIVVTGLPVTDLFLTEKHEDKWKKTDKSRKRIIWAPHFSISDGGCLNYSTFLSIAEELLEFIKNTQLPVQMAFKPHPLLKSQLYNYSSWGKEKTDEYYAAWEFLPNAQLETNEYVDLFMTSDAMIHDCGSFTIEYHHTLKPVMYLVNGKEHTATMNSFAKAAYDLHYKGQTIQDIRNFIECTVLENSDYLLEKRKNFFKSYLLPPHNQSATENIIHAILGTGYYTEKKQR”, the “soluble on expression in E. coli” value is reported as “not soluble”.

As for “MANADLDKQPDSVSSVLKVFGILQALGEEREIGITELSQRVMMSKSTVYRFLQTMKTLGYVAQEGESEKYSLTLKLFELGARALQNVDLIRSADIQMRELSRLTKETIHLGALDEDSIVYIHKIDSMYNLRMYSRIGRRNPLYSTAIGKVLLAWRDRDEVKQILEGVEYKRSTERTITSTEALLPVLDQVREQGYGEDNEEQEEGLRCIAVPVFDRFGVVIAGLSISFPTLRFSEERLQEYVAMLHTAARKISAQMGYHDYPF”, the “soluble on expression in E. coli” value is “soluble”.

Consider “MRWNLDPTHTSVEFAVRHMMIATVRGTMGLKEGYVETDETGKPIRVEARLDAASIHTGVADRDNHLRSPDFLDVANHPEIVFRSEKITPLGEGRYRVEGEVTIRGVTRPLAFEVETHGPAKDPWGNERIAAHFEGKLNRKDFGLTWNMPLETGGLLVGEEVRFSVDTQAVKAKEAVAQ”, for which the “soluble on expression in E. coli” value is on record as “soluble”.

In the case of “MSELIIYNGKVYTEDGKIDNGYIHVKDGQIVAIGEVDDKAAIDNDTTNKIQVIDAKGHHVLPGFIDIHIHGGYGQDAMDGSYDGLKYLSENLLSEGTTSYLATTMTQSTDKIDNALTNIAKYEAEQDVHNAAEIVGIHLEGPFISENKVGAQHPQYVVRPFIDKIKHFQETANGLIKIMTFAPEVEGAKEALETYKDDIIFSIGHTVATYEEAVEAVERGAKHVTHLYNAATPFQHREPGVFGAAWLNDALHTEMIVDGTHSHPASVAIAYRMKGNERFYLITDAMRAKGMPEGEYDLGGQKVTVQSQQARLANGALAGSILKMNHGLRNLISFTGDTLDHLWRVTSLNQAIALGIDDRKGSIKVNKDADLVILDDDMNVKSTIKQGKVHTFS”, the “soluble on expression in E. coli” value is “not soluble”.

For the sequence “MPSYKLTYFNVRGYGEPARILFHLADVPFEDFRMTIGDGTWENLKAKTPFGQAPVLSVDGFEIPQSAAINRYLAKQFGYAGKTPEEQAWTDAIVDQYKDFMVSIKEVGKASAAGKSAEEVGKIIQSDLVPARDAFFVIINKILEKSKSGFLVGDGLTIADIVIVECITTLDKHQLFTASEQPKLVALREKVYAIPAIKKWVEIRPDTLN”, the “soluble on expression in E. coli” value is on record as “not soluble”.
